In patent US10206975 (dated 2019):

What was measured:
human complement C5 [1] = biological target: human complement C5 (human); test: competition, ECL
human complement C5 [2] = biological target: human complement C5 (human); test: SPR, without albumin
human serum albumin [3] = biological target: T1, human serum albumin (human, UniProt P02768); test: SPR
human complement C5 [4] = biological target: human complement C5 (human); test: SPR, with human albumin
human complement C5 [5] = biological target: human complement C5 (human); test: SPR
mouse serum albumin = mouse serum albumin (mouse, UniProt P07724); test: SPR
bovine serum albumin = bovine serum albumin (bovine, UniProt P02769); test: SPR
rat serum albumin = biological target: T2, rat serum albumin (rat, UniProt P02770); test: SPR
T2 chain: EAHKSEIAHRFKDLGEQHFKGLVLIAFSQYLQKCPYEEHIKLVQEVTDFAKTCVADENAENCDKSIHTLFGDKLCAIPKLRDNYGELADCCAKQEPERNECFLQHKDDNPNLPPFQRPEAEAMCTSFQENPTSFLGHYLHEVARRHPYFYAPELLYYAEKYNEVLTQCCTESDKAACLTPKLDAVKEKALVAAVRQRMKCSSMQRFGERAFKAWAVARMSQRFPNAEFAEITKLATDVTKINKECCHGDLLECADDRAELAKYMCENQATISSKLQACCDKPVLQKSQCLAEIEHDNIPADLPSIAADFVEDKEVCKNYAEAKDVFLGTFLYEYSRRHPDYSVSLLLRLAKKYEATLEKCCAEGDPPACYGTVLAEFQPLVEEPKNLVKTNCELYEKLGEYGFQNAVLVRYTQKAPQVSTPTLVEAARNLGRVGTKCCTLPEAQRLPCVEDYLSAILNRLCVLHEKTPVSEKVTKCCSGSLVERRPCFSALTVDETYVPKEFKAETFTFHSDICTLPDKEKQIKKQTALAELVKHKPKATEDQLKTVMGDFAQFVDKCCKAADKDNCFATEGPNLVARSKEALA

human serum albumin [6] = biological target: T1, human serum albumin; test: SPR, 25C
human complement C5 [7] = biological target: human complement C5 (human); test: other, ECL saturation binding
human complement C4 = biological target: T3, human complement C4 (human); test: SPR, 40 and 400 nM
T3 chain 1: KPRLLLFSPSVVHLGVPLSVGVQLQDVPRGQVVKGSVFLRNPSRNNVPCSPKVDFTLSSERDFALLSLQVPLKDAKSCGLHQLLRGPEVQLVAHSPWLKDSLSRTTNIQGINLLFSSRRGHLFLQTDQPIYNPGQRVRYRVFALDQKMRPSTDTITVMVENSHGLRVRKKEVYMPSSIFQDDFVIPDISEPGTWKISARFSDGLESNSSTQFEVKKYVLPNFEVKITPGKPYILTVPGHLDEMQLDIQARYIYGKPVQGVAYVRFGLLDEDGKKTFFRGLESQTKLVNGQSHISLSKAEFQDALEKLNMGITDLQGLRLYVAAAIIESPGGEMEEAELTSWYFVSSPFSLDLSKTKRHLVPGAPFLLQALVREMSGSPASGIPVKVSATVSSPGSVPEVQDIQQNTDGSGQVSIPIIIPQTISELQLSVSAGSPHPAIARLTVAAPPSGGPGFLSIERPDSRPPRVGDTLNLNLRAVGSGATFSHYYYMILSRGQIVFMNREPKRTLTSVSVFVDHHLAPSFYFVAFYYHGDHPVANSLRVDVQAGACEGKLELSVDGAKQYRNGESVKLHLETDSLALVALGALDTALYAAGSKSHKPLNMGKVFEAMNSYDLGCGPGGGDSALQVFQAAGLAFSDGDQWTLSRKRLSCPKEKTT
T3 chain 2: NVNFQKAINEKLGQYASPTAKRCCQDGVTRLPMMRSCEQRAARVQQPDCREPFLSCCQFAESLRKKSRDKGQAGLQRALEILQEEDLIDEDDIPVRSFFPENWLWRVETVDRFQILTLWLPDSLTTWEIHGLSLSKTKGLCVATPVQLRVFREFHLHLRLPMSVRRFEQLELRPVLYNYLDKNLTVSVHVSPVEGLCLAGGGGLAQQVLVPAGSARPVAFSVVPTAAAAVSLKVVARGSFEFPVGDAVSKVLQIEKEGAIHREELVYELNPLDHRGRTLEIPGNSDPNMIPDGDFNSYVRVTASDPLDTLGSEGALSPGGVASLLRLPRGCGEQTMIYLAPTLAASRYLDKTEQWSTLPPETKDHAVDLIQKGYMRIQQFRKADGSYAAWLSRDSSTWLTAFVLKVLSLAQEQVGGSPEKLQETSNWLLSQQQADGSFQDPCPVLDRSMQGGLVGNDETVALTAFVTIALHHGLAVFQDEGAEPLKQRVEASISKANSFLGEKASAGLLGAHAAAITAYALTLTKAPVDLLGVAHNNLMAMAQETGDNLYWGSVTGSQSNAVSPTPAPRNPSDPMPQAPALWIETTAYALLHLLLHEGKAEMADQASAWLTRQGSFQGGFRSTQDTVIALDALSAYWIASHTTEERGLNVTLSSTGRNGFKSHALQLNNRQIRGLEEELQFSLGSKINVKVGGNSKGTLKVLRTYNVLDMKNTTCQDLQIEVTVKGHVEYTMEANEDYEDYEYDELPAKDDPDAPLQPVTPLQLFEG
T3 chain 3: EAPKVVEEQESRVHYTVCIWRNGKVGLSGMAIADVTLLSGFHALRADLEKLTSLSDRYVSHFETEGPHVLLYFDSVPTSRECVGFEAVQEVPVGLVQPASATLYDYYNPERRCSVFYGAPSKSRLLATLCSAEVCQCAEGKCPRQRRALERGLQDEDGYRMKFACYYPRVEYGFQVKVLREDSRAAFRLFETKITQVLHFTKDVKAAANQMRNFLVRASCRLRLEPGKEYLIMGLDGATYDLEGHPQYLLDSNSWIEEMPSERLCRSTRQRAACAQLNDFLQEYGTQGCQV

human complement C3 = human complement C3 (human, UniProt P01024); test: SPR, 40 and 400 nM

Sequence of mouse serum albumin (P07724 25-608): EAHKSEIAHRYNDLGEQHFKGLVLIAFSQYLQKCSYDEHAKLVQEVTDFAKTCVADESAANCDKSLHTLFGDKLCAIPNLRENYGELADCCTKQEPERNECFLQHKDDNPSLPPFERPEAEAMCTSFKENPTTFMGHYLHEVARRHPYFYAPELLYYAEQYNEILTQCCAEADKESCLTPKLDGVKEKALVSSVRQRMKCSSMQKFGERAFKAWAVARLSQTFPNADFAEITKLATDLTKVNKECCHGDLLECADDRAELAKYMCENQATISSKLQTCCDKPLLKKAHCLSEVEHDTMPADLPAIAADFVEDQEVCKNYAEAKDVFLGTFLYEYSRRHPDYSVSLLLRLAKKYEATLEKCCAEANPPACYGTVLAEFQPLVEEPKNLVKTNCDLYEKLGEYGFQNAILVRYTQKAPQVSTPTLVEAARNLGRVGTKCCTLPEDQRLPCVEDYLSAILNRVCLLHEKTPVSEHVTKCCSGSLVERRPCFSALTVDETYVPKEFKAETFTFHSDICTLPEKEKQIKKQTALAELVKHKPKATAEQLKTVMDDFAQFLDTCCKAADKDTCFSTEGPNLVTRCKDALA
Sequence of bovine serum albumin (P02769 25-607): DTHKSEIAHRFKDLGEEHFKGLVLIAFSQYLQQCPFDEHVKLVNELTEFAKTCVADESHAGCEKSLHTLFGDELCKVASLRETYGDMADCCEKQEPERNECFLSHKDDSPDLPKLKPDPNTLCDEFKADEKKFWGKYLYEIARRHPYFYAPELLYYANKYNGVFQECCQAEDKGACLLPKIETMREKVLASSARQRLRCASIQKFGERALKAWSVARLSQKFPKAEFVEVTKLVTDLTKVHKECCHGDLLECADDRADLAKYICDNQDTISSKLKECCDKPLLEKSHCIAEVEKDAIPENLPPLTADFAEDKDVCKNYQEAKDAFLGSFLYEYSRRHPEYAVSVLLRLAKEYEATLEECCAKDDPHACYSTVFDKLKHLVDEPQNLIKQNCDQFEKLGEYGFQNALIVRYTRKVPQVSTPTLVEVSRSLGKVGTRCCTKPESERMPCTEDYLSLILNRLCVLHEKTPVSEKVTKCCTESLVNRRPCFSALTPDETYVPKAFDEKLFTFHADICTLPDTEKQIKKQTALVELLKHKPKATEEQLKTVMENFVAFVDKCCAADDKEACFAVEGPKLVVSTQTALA

B1: OmCI (protein)
chain: MDSESDCTGSEPVDAFQAFSEGKEAYVLVRSTDPKARDCLKGEPAGEKQDNTLPVMMTFKNGTDWASTDWTFTLDGAKVTATLGNLTQNREVVYDSQSHHCHVDKVEKEVPDYEMWMLDAGGLEVEVECCRQKLEELASGRNQMYPHLKDCGGGGSENLYFQGSHHHHHH
In the case of B1, the IC50 (human complement C5 [1]) is reported as 1.5 nM.

B2: Z06175a-GS-ABD094-GS(G4S)2-Z06175a (designed binder)
chain 1: not shown
chain 2: LAEAKEAANAELDSYGVSDFYKRLIDKAKTVEGVEALKDAILAALP
chain 3: not shown
B2 gave a Kd (human complement C5 [2]) of 0.662 nM, a Kd (human serum albumin [3]) greater than 1 nM and a Kd (human complement C5 [4]) of 0.586 nM.

B3: Z06175a-Z06175a-GS-ABD094 (designed binder)
chain 1: not shown
chain 2: not shown
chain 3: LAEAKEAANAELDSYGVSDFYKRLIDKAKTVEGVEALKDAILAALP
B3 showed a Kd (human complement C5 [2]) of 0.63 nM and a Kd (human complement C5 [4]) of 0.776 nM.

B4: Z(757)-GS-ABD094 (designed binder)
chain 1: not shown
chain 2: LAEAKEAANAELDSYGVSDFYKRLIDKAKTVEGVEALKDAILAALP
Binder B4 has a Kd (human complement C5 [5]) of 2.34 nM.

B5: Z(752)-GS-ABD094 (designed binder)
chain 1: not shown
chain 2: LAEAKEAANAELDSYGVSDFYKRLIDKAKTVEGVEALKDAILAALP
B5 showed a Kd (human complement C5 [5]) of 2.58 nM.

B6: Z(756)-GS-ABD094 (designed binder)
chain 1: not shown
chain 2: LAEAKEAANAELDSYGVSDFYKRLIDKAKTVEGVEALKDAILAALP
B6 gave a Kd (human complement C5 [5]) of 2.01 nM.

B7: Z(755)-GS-ABD094 (designed binder)
chain 1: not shown
chain 2: LAEAKEAANAELDSYGVSDFYKRLIDKAKTVEGVEALKDAILAALP
B7 gave a Kd (human complement C5 [5]) of 3.05 nM.

B8: Z06175a-Z06175a-GS(G4S)2-ABD094 (designed binder)
chain 1: not shown
chain 2: not shown
chain 3: LAEAKEAANAELDSYGVSDFYKRLIDKAKTVEGVEALKDAILAALP
B8 was tested, and the Kd (human complement C5 [2]) was 1.38 nM and the Kd (human complement C5 [4]) was 1.13 nM.

B9: Z(750)-GS-ABD094 (designed binder)
chain 1: not shown
chain 2: LAEAKEAANAELDSYGVSDFYKRLIDKAKTVEGVEALKDAILAALP
Work on B9 yielded a Kd (human complement C5 [5]) of 1.75 nM.

B10: Z06175a-GS(G4S)2-ABD094 (designed binder)
chain 1: not shown
chain 2: LAEAKEAANAELDSYGVSDFYKRLIDKAKTVEGVEALKDAILAALP
Binder B10 has a Kd (human complement C5 [2]) of 3.75 nM.

B11: Z06175a-GS-ABD094 (designed binder)
chain 1: not shown
chain 2: LAEAKEAANAELDSYGVSDFYKRLIDKAKTVEGVEALKDAILAALP
With B11 the Kd (mouse serum albumin) was roughly 4 nM, the binding result (bovine serum albumin) was “no binding” and the Kd (rat serum albumin) was less than 0.1 nM. It also gave a Kd (human complement C5 [2]) of 1.43 nM, a Kd (human complement C5 [5]) of 1.18 nM and a Kd (human serum albumin [6]) of less than 1 nM. For the same binder, the Kd (human complement C5 [4]) was 1.43 nM.

B12: Z(754)-GS-ABD094 (designed binder)
chain 1: not shown
chain 2: LAEAKEAANAELDSYGVSDFYKRLIDKAKTVEGVEALKDAILAALP
With B12 the Kd (human complement C5 [5]) was 2.28 nM.

B13: SULFO-TAG Z(748)-GS-ABD094 (designed binder)
chain 1: not shown
chain 2: LAEAKEAANAELDSYGVSDFYKRLIDKAKTVEGVEALKDAILAALP
B13 was tested, and the Kd (human complement C5 [7]) was 0.9 nM.

B14: Z(748)-GS-ABD094 (Z06009a) (designed binder)
chain 1: not shown
chain 2: LAEAKEAANAELDSYGVSDFYKRLIDKAKTVEGVEALKDAILAALP
For B14, the binding result (human complement C4) was “no binding”, the binding result (human complement C3) was “no binding” and the Kd (human complement C5 [5]) was 1.31 nM.

B15: Z05477a-GS-ABD094 (designed binder)
chain 1: not shown
chain 2: LAEAKEAANAELDSYGVSDFYKRLIDKAKTVEGVEALKDAILAALP
With B15 the IC50 (human complement C5 [1]) was roughly 30 nM.

B16: Z(751)-GS-ABD094 (designed binder)
chain 1: not shown
chain 2: LAEAKEAANAELDSYGVSDFYKRLIDKAKTVEGVEALKDAILAALP
B16 gave a Kd (human complement C5 [5]) of 1.87 nM.

B17: ABD094-Z06175a (N-terminal ABD) (designed binder)
chain 1: LAEAKEAANAELDSYGVSDFYKRLIDKAKTVEGVEALKDAILAALP
chain 2: not shown
Work on B17 yielded an IC50 (human complement C5 [1]) of 17 nM.

B18: Z(749)-GS-ABD094 (designed binder)
chain 1: not shown
chain 2: LAEAKEAANAELDSYGVSDFYKRLIDKAKTVEGVEALKDAILAALP
B18 was tested, and the Kd (human complement C5 [5]) was 1.83 nM.
